Experiment [1] has as its target T1, GST alone control protein (UniProt P08515 1-218 = GST).
T1 construct: Negative control; also called GST control protein; control GST alone protein
Briefly: SPR (Biacore J), control injected over SAA on CM5 chip. As for the experimental part: (§1) The 96% pure SAA was covalently bound to the biospecific sensor surface of the Biacore J (biacore, Sweden). This surface consists of a gold-coated glass slide mounted in a plastic holder (the sensor chip). The CM5 chip (biacore, Sweden) was used for all experiments and this chip is covered with a hydrophilic matrix, consisting of carboxymethylated dextran to which the SAA was covalently bound. The tanis protein fragments were injected into the system and flowed across this chip and sensorgrams were recorded in real-time.
(§2) The interaction of the proteins is indicated by the failure of the response to return to the baseline RU value. The difference between the values post injection (points 1, 3, 5, 7) indicates a binding event between full length tanis and SAA. The difference between the injection point and the max RU indicates the affinity between the two proteins. […] These sensorgrams indicate a potentially high affinity binding with a rapid dissociation of the binding event. A series of controls have also been injected across the SAA chip, these were GST alone, BSA (NEB, USA) alone and buffer alone.
On the technique in general: Surface plasmon resonance follows binding to a sensor surface in real time, without labels.

Another experiment concerns the target T2, BSA (NEB, USA) (UniProt P02769 25-607).
T2 construct: Negative control
The description is as above. As for the experimental part:
as §1, §2

T2 sequence (P02769 25-607 limits assumed): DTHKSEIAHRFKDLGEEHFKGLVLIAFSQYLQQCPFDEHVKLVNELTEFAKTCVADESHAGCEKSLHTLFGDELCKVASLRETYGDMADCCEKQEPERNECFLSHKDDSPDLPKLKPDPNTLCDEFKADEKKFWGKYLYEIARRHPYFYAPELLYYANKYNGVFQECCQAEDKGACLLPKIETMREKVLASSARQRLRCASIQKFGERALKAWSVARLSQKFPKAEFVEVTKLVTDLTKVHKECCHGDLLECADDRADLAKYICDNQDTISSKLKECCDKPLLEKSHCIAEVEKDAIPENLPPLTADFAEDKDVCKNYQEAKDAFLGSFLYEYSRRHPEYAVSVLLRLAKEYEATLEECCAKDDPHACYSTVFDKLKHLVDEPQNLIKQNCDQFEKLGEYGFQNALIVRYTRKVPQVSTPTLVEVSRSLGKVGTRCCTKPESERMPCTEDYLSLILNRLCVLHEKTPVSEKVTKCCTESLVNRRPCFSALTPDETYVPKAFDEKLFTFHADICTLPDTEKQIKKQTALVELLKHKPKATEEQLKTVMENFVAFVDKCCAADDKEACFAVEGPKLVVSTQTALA
T1 sequence (P08515 whole entry): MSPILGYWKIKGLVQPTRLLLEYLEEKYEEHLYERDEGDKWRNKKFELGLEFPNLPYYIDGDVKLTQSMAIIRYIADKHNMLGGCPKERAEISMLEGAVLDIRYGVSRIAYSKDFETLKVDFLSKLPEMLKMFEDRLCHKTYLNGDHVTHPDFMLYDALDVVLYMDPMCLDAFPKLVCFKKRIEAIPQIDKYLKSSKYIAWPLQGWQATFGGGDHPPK

B1: Serum amyloid A (SAA) purified from human sera / human plasma (Trace Scientific) (ligand, UniProt P0DJI8 19-122, looked up)
chain: RSFFSFLGEAFDGARDMWRAYSDMREANYIGSDKYFHARGNYDAAKRGPGGAWAAEVITDARENIQRFFGHGAEDSLADQAANEWGRSGKDPNHFRPAGLPEKY
notes: also called human plasma SAA
As for B1, the binding result in experiment [1] is recorded as “no binding”; with BSA (NEB, USA), “no binding”.
